Assay: yeast display, Sf9 membrane polyspecificity reagent, FACS + sequencing; frameworks hold sequencing errors
Method in brief: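 Genes from sorted yeast were amplified by colony PCR, read by MiSeq 2 × 250 sequencing and filtered on CDR length. These cells carried a synthetic nanobody library in Saccharomyces cerevisiae BJ5465 and were sorted by FACS into low and high (top ~1%) gates on anti-HA and streptavidin fluorescence. Polyreactivity is labelled according to the gate of origin.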

Sequence	polyreactivity (PSR sort gate)
QVQLVESRGGLVQAGGSLRLSCAASAFTFDYYVMGWYIQAPGKERELVAAISLRSGRTYYADSVKGRFTISRDNAKNTVYLQMNSLKPEDTAVYYCAAESRGVGAYYYWGQGTQLTVSS	high polyreactivity
QVQLVESRGGLVQAGGSLRLSCAASGFTFRAYAMGWYREAPGKERELVAAISTGGGSTYYADSVKGRFTISRDNAKITVYFQMNSLKPEDTAVYYCNALPQRRYYYWGQGTHVTVSS	high polyreactivity
QVQLVESRGGLVQAGGSLRLSCAASGFTFSAYAMGWYRQAPGKERELVAAISWSGSRTYYADSVKGRFTISRDNAKNTVYLQMNSQKPEDTAVYYCAKEPYDTFGFYDYDYWGQGTQVTVSS	low polyreactivity
QVQLVESRGGLVQAGGSLRLSCAASGFTFYKYAMGCYRQAPGKERELVAAITGSGGSTYYADSVKGRFTISRDNAKNTVYLQMNSLKPEDTAVYYCATRYPTYYGYHKFDYWGQGTQVTVSS	high polyreactivity
QVQLVESRGGLVQAGGSLRLSCAASGFTFYYYAMGWYRQAPGKERELVAAISGRGGSTYYADSVKGRFTISRDNAKNSVYLQMNSLKPEDTAVYYCAAVPIVRLEYWGQGTQVTVSS	high polyreactivity
QVQLVESRGGLVQAGGSLRLSCAASGIIFQSYTMGWYRQAPGKERELVAAISTSGSTYYADSVKGRFTISRDNAKNTVYLQMNSLKPEDTAVYYCATYRYRIWWWGEYDYWGQGTQVTVSS	high polyreactivity
QVQLVESRGGLVQAGGSLRLSCAASGNTFYGYAMGWYRPAPGKERELVASITLSGDSTYYADSVKGRFTISRDNAKNTVYLQMNSLKPEDTAVYYCAGVYTYPLGYYHYTYDYWGQGTQVTVSS	low polyreactivity
QVQLVESRGGLVQAGGSLRLSCAASGPTFRNTAMGWSRQAPGKDREFVAVISNTGGSTYYADSVKGRFTISRDNAKNTVYLQMNSLKAEDTAVYYCGVRPRYSQYYYWGQGTQVTVSS	high polyreactivity
QVQLVESRGGLVQAGGSLRLSCAASGRIFGLYAMGWYRQAPGKERELVAAYADSVKGRFTISRDNAKNTVYLKMNCLKPEDTAVYYCAKGPLYAGYSIDLRDFNYWGQGTQVNVSS	low polyreactivity
QVQLVESRGGLVQAGGSLRLSCAASGRIFGTNAMGWYRQAPGRERELVATITRGGGNTYYADSVKGRFTISRDIAKNTVYLQMNSLKPEDTAVYYCAAKFHRFAWYSHYDYWGHGTQVTVSS	low polyreactivity
QVQLVESRGGLVQAGGSLRLSCAASGRIFHYYVMGWYRQAPGKERELVARITFNGGGTYYADSVKGRFTISRDIAKNTVYLQMNRLKPEDTAVYYCNARYPWRDWEDDYWGQGTQVTVSS	low polyreactivity
QVQLVESRGGLVQAGGSLRLSCAASGRIILIYAMGWYRQAPGKERELVGDISKGGSSTYYADSVKGRVTISRDNAQNTVYLQMNSLKPEDTAVYYCAASGRWTGRQAAYDYWGQGTQVTVSS	high polyreactivity
QVQLVESRGGLVQAGGSLRLSCAASGRIIPSYMGWYRQAPGKQRELVARISNTGSTYYADSVKGRFTISRDNAKNTVYLQMNRLKPEDTAVYYCAAVYIFRVFSHPPYDYWGQGTQVTVST	low polyreactivity
QVQLVESRGGLVQAGGSLRLSCAASGRIYSVYDMGWYRQAPGKESEFVAAIRSSGDSTYYADSVKGRFTISRDNAKNTVYLQMNSLKPDDTAVYYCAADVYRYRVRGLNYWGQGTQVTVSS	high polyreactivity
QVQLVESRGGLVQAGGSLRLSCAASGRLFYSYAMGWNRQEPGKEREFVAAISRSGARTYYADSVKGRFTISRDNAKNTVYLQMNSLKPEDTAVYYCAADDFSTVEYDYWGQGTQVTVSS	low polyreactivity
QVQLVESRGGLVQAGGSLRLSCAASGRTFLGYAMGWYRQAPGKERELVAAISYSGSSTYYADSVKGRFTISRDNAKNTVYLQMNSLKPEDTAVYYCAAQFYFLFDYWGQGTQVTVSS	low polyreactivity
QVQLVESRGGLVQAGGSLRLSCAASGSICYRYAMGWYRQAPGKERELVAAISYSGGSTYYADSVKGRFTISRDNAKNTVYLQMKSLKPEDTAVYYCAKDYPPPISDYSRYYGYGYWGQGTQVTVSS	low polyreactivity
QVQLVESRGGLVQAGGSLRLSCAASGSIFPYNAMGWYRQAPGKEREFVAAINLSGGSTNYADSVKGRFTISRDNAKNTVYLQMNSLKPEDTAVYYCNAPVDYFWPLNFDYWGQGTQVTVSS	low polyreactivity
QVQLVESRGGLVQAGGSLRLSCAASGSIFYRYAMGWYRPAPWKERELVAAIRRGGSTNYADSVKGRFTISRDNAKNTVYLQMNSLKPEDTAVYYCAAGRFTYAAQRYEYWGQGTQVTVSS	high polyreactivity
QVQLVESRGGLVQAGGSLRLSCAASGSTCFTNDMGWYRQAPGTERELVASISPSTGSTYYADSVKGRVTISRDNAKNTVSLQMNSLKPDDTAVYYCAADEWYYSYNDGNLYDYWGQGTQVTVSS	low polyreactivity
QVQLVESRGGLVQAGGSLRLSCAASGSTFFRYAMGWYRQAPGKERELVAAITDSDGSTYYADSVKGRFTISRDNAKNTVYLQMNSLKPEDTAVYYCAAAHPDGWTVYNPQGGAWYDYWGQGSQVTVSS	low polyreactivity
QVQLVESRGGLVQAGGSLRLSCAASGSTFKPNAMGWYRPAPGKERELVAAITSGSTYYADSVKGRFTISRDNAKNTVYLQMNSLKPEDTAVYYCATSFRGKSPYRNSGSYYYWGQGTQVTVSS	high polyreactivity

Sequence	polyreactivity (PSR sort gate)
QVQLVESRGGLVQAGGSLRLSCAASGSTFRTYAMGWYRQAPGKERELVADITWRGGSTYYADSVKGRFTISRDNAKNTVYLQMNSLKPEDTAVYYCATDRGPEVVLYDYWGQGTQVTVSS	low polyreactivity
QVQLVESRGGLVQAGGSLRLSCAASGSTFSVYAMGWYRQAPGKERELVADITRGGSTYADSVTGRFTISRDNAKNTVYLQMNSLKPEDTAVDYCARAEVTPYPLYWSTREYDYWGQGTQVTVSS	low polyreactivity
QVQLVESRGGLVQAGGSLRLSCAASGSTFYAYAMGWYRQAPGKERDLVAAISSSGGSTYYADSVKGRFTISRDNAKNTVYLQMNSLKTEDTAVYYCAAYDSVQKYWILGFDYWGQGTQVTVSS	low polyreactivity
QVQLVESRGGLVQAGGSLRLSCAASGSTILQYAMGWYRQAPGNERELVAAIRFSTGTTYYADSVKGRFTISRDTANNTVYLQMNSLKPEDTAVYYCAALARTRGRKYGYWGHGTQVTVSS	high polyreactivity
QVQLVESRGGLVQAGGSLRLSCAASGSTSRTYAMGWYRQAPGKEMELVAAISSSGGRTYYADSVKGRFTISRDNAKNTVYLLMNSLKPEDTAVYYCNARTYSYRGYNYWGQGTQVTVSS	high polyreactivity
QVQLVESRGGLVQAGGSLRLSCSASGLTIWRYAMGWYRHEPGKEWEFVATISQNGGRTYYADSVKGRFTISRDNAKNTVYLQMNSLKPEDTAVYYCAADDWRWGYDYWGQGTQVTVSS	high polyreactivity
QVQLVESRGGLVQAGGSLRLSFAASGSNFGAYAMVWYRQAPGKERELVAGITGSGGTTYYADSVKGRFTISRDNGKNTVYLQMNSLTPEDTAVYDCAKRVWVRYYYWGQGTQVTVSS	high polyreactivity
QVQLVESRGGLVQAGGSLRLSFPASGSTFYKYAKGWYRQAPGKERELVASISRRAGSTYYADSVKGRFTISRDNAKNTVDVQMTSLKPEDTAVYYCAAVGRYDRVFDYDYWGQGTQVTVSS	high polyreactivity
QVQLVESRGGLVQAGRSLRLSCAASGITFYSYAMGWYRQEPGKERELVAAITLTGGTTYYADSVKGRFTISRDNAKNTVYLQMNSLKPEDTAVYYCAAQYWWWSRFEYDSCGQGTQVTVSS	low polyreactivity
QVQLVESRGRLVQAGGSLRLSCAASGSIFVGNAMGWYRQAPGKERELVAAISSGGSTYYADSVKGRFTISRDNAKNTVYLQMNSLKPEDTAVYFGAAYYVRRYSSRPKDDYWGQGTQVSVSS	low polyreactivity
QVQLVESRGRLVQAGGSLRLSCAASGYTFNHNAMGWYRPAPGKETELVAVITPRAGSTYYADSVKGRFTISRDNAKNTVYLQKNSLKPEDSAVYYCNADGFVRRTLRYDYWVQGTQVTVSS	high polyreactivity
QVQLVESRGVLVQAGGSLRLSCAASGFTFYHYAMGWYRQAPGKDRELVAALDNGGSTYADSVKGRFTISRDNATNTVSLQRNSLKPEDTAVYYCAAVYLRYINGFYFWGQGTQVTVSS	low polyreactivity
QVQLVESRRGLVQAGASLRLSCAASGSTFYGYGMGWYRQAPGKERELVAAITGSGDTTYYADSVKGRFTISRDNAKNTVYLQMNSLKPEDTAVYYCNARWHAEYDYWGQGTQVTVSS	low polyreactivity
QVQLVESRRGLVQAGGSLRLSCAGSGRIVSDYAMGWYRQAPGKERELVATITSGDSTNYADSVKGRFTISRDNAKNTVYLQMNSQKPEDTAVYYCNADRFADYDYWGQGTQVTVSS	low polyreactivity
QVQLVESRVGLVQAGGSLRLSCAASGIIFTLYAMGWYRQAPGKERELVAGIDASGGSTSYADSVKGRFTISRDNAKNTVYLQMNSLKPEVTAVYYCAARILPYGYDYWGQGTQVTVSS	low polyreactivity
QVQLVESRWRFVQAGGSLRLSCAASGSIFADYAMGWYRQATGKERELVAAITFSGGSTYYADSVKGRFTISRDNENNTVYLQMNSLKPEDTAVYYCAARWRYRYYSWGQGTQVTVSS	high polyreactivity
QVQLVESSGGLVQAGCSLRLSCAASGFTFGYYAMGWYRQAPGKERELVAAISRSGGRTYYADSVKGRFTISRDKAKNTVYLQMNSLNPEDTAVYYCAAWYVPGYLVDSDYWGQGTQVTVSS	high polyreactivity
QVQLVESVAGLVQAGGSLRLSCAASGSIFRFYAMGWYRQAPGKERELVAGITWSGASTYYADSVKGRFTISRDNAKNTVYLQMNSLKPEDTAVYYCAKRYRLDGFYYWGQGTQVTVSS	high polyreactivity
QVQLVESVGCLVQAGGSLRLICAASGSIFVDYAMGWYRQAPGKERELVAAISSGGGSTYYADSVKGRFTISRDNSKYTVYLQMNSLKPEDTAVYYCATDLQPRSFLYWYNYWGQGTQVTVSS	low polyreactivity
QVQLVESVGCLVQAGGSLRLSCAASGNIITNNAMGWYRQAPGKERELVAAITRGGNTNYADSVKGRFTISRDNAKKTVYLQMKSLKPEDTAVFYCAADRYVELLGYFFEYDYWGQGTQVTVSS	low polyreactivity
QVQLVESVGDLVQEGGSLRLSCAASGRIFYWYAMGWYRQAPGKETELVAAITSGGSTYYADSVKGRFTISRDNAKNTVYLQMNSLKPEDTAVYYCAKPFSSNSCSHGYWGQGTQVTVSS	low polyreactivity
